# Measurements reported in IntAct's records for PubMed 35512704.
# B1: Mothers against decapentaplegic homolog 4 (Homo sapiens), Q13485 (parent)
# chain: MDNMSITNTPTSNDACLSIVHSLMCHRQGGESETFAKRAIESLVKKLKEKKDELDSLITAITTNGAHPSKCVTIQRTLDGRLQVAGRKGFPHVIYARLWRWPDLHKNELKHVKYCQYAFDLKCDSVCVNPYHYERVVSPGIDLSGLTLQSNAPSSMMVKDEYVHDFEGQPSLSTEGHSIQTIQHPPSNRASTETYSTPALLAPSESNATSTANFPNIPVASTSQPASILGGSHSEGLLQIASGPQPGQQQNGFTGQPATYHHNSTTTWTGSRTAPYTPNLPHHQNGHLQHHPPMPPHPGHYWPVHNELAFQPPISNHPAPEYWCSIAYFEMDVQVGETFKVPSSCPIVTVDGYVDPSGGDRFCLGQLSNVHRTEAIERARLHIGKGVQLECKGEGDVWVRCLSDHAVFVQSYYLDREAGRAPGDAVHKIYPSAYIKVFDLRQCHRQMQQQAATAQAAAAAQAAAVAGNIPGPGSVGGIAPAISLSAAAGIGVDDLRRLCILRMSFVKGWGPDYPRQSIKETPCWIEIHLHRALQLLDEVLHTMPIADPQPLD
# Variants of: B1
# Details: with smad3_human SMAD3, P84022
row,effect of a mutation on the interaction,Variant
1,disrupting interaction strength,D351H

# Variants of: B1
# Details: with agap2_human AGAP2, Q99490
# Sequence of agap2_human AGAP2, Q99490 (Q99490 whole entry): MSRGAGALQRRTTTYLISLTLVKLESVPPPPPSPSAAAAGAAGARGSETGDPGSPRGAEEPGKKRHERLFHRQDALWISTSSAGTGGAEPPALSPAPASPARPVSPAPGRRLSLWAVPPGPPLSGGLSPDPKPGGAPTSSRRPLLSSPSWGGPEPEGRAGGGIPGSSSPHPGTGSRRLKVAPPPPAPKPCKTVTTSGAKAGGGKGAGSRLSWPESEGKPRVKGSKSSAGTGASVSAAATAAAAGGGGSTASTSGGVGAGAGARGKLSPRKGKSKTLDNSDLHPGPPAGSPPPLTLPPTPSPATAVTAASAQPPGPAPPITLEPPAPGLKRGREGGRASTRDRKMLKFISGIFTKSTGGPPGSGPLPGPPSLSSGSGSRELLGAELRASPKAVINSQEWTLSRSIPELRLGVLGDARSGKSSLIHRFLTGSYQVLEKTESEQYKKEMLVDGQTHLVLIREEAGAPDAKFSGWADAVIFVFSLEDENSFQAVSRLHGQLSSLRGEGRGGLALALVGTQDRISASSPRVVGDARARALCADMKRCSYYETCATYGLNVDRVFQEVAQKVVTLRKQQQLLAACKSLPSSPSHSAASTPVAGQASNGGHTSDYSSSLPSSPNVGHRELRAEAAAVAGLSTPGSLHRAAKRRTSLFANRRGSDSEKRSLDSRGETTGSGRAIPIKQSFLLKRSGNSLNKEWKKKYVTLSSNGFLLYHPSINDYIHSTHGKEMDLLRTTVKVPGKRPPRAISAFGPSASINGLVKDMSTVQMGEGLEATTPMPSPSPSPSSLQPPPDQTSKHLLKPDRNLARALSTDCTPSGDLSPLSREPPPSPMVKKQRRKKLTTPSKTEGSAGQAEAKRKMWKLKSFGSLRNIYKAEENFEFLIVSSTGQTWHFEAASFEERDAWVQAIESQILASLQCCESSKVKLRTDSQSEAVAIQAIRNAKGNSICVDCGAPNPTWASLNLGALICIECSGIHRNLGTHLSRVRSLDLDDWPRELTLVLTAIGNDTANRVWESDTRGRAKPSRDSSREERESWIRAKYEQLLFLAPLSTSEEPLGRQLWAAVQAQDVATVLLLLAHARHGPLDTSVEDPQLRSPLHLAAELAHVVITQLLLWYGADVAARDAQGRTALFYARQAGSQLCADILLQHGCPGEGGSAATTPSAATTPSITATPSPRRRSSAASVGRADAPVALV
row,effect of a mutation on the interaction,Variant
1,with no effect,D351H

# Variants of: B1
# Details: with ajuba_human AJUBA
row,effect of a mutation on the interaction,Variant
1,with no effect,D351H

# Variants of: B1
# Details: with akts1_human AKT1S1, Q96B36
row,effect of a mutation on the interaction,Variant
1,with no effect,D351H

# Variants of: B1
# Details: with akt2_human AKT2, P31751
row,effect of a mutation on the interaction,Variant
1,with no effect,D351H

# Variants of: B1
# Details: with alk_human ALK
row,effect of a mutation on the interaction,Variant
1,with no effect,D351H

# Variants of: B1
# Details: with aph1a_human APH1A
row,effect of a mutation on the interaction,Variant
1,with no effect,D351H

# Variants of: B1
# Details: with arnt_human ARNT
row,effect of a mutation on the interaction,Variant
1,with no effect,D351H

# Variants of: B1
# Details: with arc1a_human ARPC1A
row,effect of a mutation on the interaction,Variant
1,with no effect,D351H

# Variants of: B1
# Details: with asxl1_human ASXL1, Q8IXJ9
row,effect of a mutation on the interaction,Variant
1,with no effect,D351H

# Variants of: B1
# Details: with atpb_human ATP5F1B
row,effect of a mutation on the interaction,Variant
1,with no effect,D351H

# Variants of: B1
# Details: with aurkb_human AURKB
row,effect of a mutation on the interaction,Variant
1,with no effect,D351H

# Variants of: B1
# Details: with ufo_human AXL
row,effect of a mutation on the interaction,Variant
1,with no effect,D351H

# Variants of: B1
# Details: with za2g_human AZGP1, P25311
row,effect of a mutation on the interaction,Variant
1,with no effect,D351H

# Variants of: B1
# Details: with b2mg_human B2M
row,effect of a mutation on the interaction,Variant
1,with no effect,D351H

# Variants of: B1
# Details: with becn1_human BECN1, Q14457
row,effect of a mutation on the interaction,Variant
1,with no effect,D351H

# Variants of: B1
# Details: with birc2_human BIRC2, Q13490
row,effect of a mutation on the interaction,Variant
1,with no effect,D351H

# Variants of: B1
# Details: with braf_human BRAF
row,effect of a mutation on the interaction,Variant
1,with no effect,D351H

# Variants of: B1
# Details: with baba2_human BABAM2, Q9NXR7
# Sequence of baba2_human BABAM2, Q9NXR7 (Q9NXR7 whole entry): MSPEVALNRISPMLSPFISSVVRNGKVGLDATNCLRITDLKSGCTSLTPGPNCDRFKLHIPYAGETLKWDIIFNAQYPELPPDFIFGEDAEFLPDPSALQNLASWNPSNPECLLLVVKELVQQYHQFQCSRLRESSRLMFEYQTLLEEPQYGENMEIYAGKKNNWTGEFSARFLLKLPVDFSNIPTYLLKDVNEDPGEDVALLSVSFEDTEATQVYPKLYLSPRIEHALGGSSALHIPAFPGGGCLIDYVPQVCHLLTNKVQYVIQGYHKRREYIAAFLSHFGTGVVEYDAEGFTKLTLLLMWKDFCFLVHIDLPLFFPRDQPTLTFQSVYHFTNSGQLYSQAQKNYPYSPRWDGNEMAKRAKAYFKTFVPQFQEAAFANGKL
row,effect of a mutation on the interaction,Variant
1,with no effect,D351H

# Variants of: B1
# Details: with btg1_human BTG1, P62324
# Sequence of btg1_human BTG1, P62324 (P62324 whole entry): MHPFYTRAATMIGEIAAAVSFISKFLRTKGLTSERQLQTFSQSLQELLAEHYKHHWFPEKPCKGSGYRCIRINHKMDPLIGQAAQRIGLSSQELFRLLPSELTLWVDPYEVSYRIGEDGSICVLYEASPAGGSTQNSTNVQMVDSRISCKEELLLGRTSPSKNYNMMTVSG
row,effect of a mutation on the interaction,Variant
1,with no effect,D351H

# Variants of: B1
# Details: with cbl_human CBL
row,effect of a mutation on the interaction,Variant
1,with no effect,D351H

# Variants of: B1
# Details: with cblb_human CBLB
row,effect of a mutation on the interaction,Variant
1,with no effect,D351H

# Variants of: B1
# Details: with ccnd1_human CCND1, P24385
row,effect of a mutation on the interaction,Variant
1,with no effect,D351H

# Variants of: B1
# Details: with ccnd2_human CCND2, P30279
row,effect of a mutation on the interaction,Variant
1,with no effect,D351H

# Variants of: B1
# Details: with ccnd3_human CCND3, P30281
row,effect of a mutation on the interaction,Variant
1,with no effect,D351H

# Variants of: B1
# Details: with ccne1_human CCNE1, P24864
# Sequence of ccne1_human CCNE1, P24864 (P24864 whole entry): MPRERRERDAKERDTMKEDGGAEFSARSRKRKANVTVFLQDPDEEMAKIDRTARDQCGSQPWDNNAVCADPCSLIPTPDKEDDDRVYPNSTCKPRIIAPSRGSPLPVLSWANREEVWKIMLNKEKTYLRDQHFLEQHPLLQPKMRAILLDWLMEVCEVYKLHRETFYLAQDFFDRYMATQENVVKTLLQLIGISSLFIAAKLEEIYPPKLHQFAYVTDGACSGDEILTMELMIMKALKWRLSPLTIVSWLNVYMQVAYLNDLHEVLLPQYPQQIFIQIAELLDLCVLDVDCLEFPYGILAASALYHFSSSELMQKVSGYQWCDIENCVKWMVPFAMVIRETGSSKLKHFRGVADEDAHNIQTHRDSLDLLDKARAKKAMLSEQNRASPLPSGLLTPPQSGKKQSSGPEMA
row,effect of a mutation on the interaction,Variant
1,with no effect,D351H

# Variants of: B1
# Details: with cd44_human CD44, P16070
row,effect of a mutation on the interaction,Variant
1,with no effect,D351H

# Variants of: B1
# Details: with cd79b_human CD79B
row,effect of a mutation on the interaction,Variant
1,with no effect,D351H

# Variants of: B1
# Details: with cdk4_human CDK4, P11802
row,effect of a mutation on the interaction,Variant
1,with no effect,D351H

# Variants of: B1
# Details: with cdn2b_human CDKN2B
row,effect of a mutation on the interaction,Variant
1,with no effect,D351H

# Variants of: B1
# Details: with cdn2c_human CDKN2C
row,effect of a mutation on the interaction,Variant
1,with no effect,D351H

# Variants of: B1
# Details: with cebpa_human CEBPA
row,effect of a mutation on the interaction,Variant
1,with no effect,D351H

# Variants of: B1
# Details: with chd1l_human CHD1L
row,effect of a mutation on the interaction,Variant
1,with no effect,D351H

# Variants of: B1
# Details: with chd2_human CHD2, O14647
row,effect of a mutation on the interaction,Variant
1,with no effect,D351H

# Variants of: B1
# Details: with ch3l1_human CHI3L1, P36222
row,effect of a mutation on the interaction,Variant
1,with no effect,D351H

# Variants of: B1
# Details: with csf1r_human CSF1R
row,effect of a mutation on the interaction,Variant
1,with no effect,D351H

# Variants of: B1
# Details: with ctna1_human CTNNA1, P35221
row,effect of a mutation on the interaction,Variant
1,with no effect,D351H

# Variants of: B1
# Details: with ctnb1_human CTNNB1, P35222
row,effect of a mutation on the interaction,Variant
1,with no effect,D351H

# Variants of: B1
# Details: with cul3_human CUL3, Q13618
row,effect of a mutation on the interaction,Variant
1,with no effect,D351H

# Variants of: B1
# Details: with dicer_human DICER1, Q9UPY3
row,effect of a mutation on the interaction,Variant
1,with no effect,D351H

# Variants of: B1
# Details: with duox2_human DUOX2, Q9NRD8
row,effect of a mutation on the interaction,Variant
1,with no effect,D351H

# Variants of: B1
# Details: with e2f1_human E2F1, Q01094
# Sequence of e2f1_human E2F1, Q01094 (Q01094 whole entry): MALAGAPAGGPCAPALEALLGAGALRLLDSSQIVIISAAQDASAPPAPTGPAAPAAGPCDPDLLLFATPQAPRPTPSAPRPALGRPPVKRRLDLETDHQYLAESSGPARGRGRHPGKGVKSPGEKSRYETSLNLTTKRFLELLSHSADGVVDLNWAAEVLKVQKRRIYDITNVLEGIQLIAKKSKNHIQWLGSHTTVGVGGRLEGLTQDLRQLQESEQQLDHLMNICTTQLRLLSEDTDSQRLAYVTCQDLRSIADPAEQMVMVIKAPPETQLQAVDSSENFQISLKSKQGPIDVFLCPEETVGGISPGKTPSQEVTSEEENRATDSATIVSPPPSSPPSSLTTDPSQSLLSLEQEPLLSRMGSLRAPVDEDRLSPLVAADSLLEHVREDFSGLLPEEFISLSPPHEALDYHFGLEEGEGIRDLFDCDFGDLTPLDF
row,effect of a mutation on the interaction,Variant
1,with no effect,D351H

# Variants of: B1
# Details: with e2f2_human E2F2, Q14209
row,effect of a mutation on the interaction,Variant
1,with no effect,D351H

# Variants of: B1
# Details: with e2f3_human E2F3, O00716
row,effect of a mutation on the interaction,Variant
1,with no effect,D351H

# Variants of: B1
# Details: with e2f4_human E2F4, Q16254
row,effect of a mutation on the interaction,Variant
1,with no effect,D351H

# Variants of: B1
# Details: with e2f5_human E2F5, Q15329
row,effect of a mutation on the interaction,Variant
1,with no effect,D351H

# Variants of: B1
# Details: with if4e_human EIF4E
row,effect of a mutation on the interaction,Variant
1,with no effect,D351H

# Variants of: B1
# Details: with epha7_human EPHA7, Q15375
row,effect of a mutation on the interaction,Variant
1,with no effect,D351H

# Variants of: B1
# Details: with ephb1_human EPHB1, P54762
row,effect of a mutation on the interaction,Variant
1,with no effect,D351H

# Variants of: B1
# Details: with erbb3_human ERBB3, P21860
row,effect of a mutation on the interaction,Variant
1,with no effect,D351H

# Variants of: B1
# Details: with erbb4_human ERBB4, Q15303
row,effect of a mutation on the interaction,Variant
1,with no effect,D351H

# Variants of: B1
# Details: with esr1_human ESR1, P03372
# Sequence of esr1_human ESR1, P03372 (P03372 whole entry): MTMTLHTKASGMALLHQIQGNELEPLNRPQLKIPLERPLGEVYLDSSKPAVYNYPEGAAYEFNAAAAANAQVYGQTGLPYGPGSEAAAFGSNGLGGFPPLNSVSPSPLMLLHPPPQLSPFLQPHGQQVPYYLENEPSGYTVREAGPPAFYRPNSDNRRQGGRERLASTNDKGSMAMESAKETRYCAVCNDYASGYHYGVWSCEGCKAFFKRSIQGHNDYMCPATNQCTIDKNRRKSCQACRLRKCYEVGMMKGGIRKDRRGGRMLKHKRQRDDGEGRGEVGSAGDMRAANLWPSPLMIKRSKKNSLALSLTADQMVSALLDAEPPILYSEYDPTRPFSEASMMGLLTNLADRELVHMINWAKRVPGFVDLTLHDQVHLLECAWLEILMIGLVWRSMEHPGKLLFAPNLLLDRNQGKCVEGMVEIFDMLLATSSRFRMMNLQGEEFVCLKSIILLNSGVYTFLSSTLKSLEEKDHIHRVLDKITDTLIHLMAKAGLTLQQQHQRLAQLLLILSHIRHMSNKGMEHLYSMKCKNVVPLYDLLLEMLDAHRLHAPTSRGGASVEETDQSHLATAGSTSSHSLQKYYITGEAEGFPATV
row,effect of a mutation on the interaction,Variant
1,with no effect,D351H

# Variants of: B1
# Details: with etv1_human ETV1, P50549
row,effect of a mutation on the interaction,Variant
1,with no effect,D351H

# Variants of: B1
# Details: with fadd_human FADD
row,effect of a mutation on the interaction,Variant
1,with no effect,D351H

# Variants of: B1
# Details: with facd2_human FANCD2, Q9BXW9
row,effect of a mutation on the interaction,Variant
1,with no effect,D351H

# Variants of: B1
# Details: with fgf19_human FGF19, O95750
# Sequence of fgf19_human FGF19, O95750 (O95750 whole entry): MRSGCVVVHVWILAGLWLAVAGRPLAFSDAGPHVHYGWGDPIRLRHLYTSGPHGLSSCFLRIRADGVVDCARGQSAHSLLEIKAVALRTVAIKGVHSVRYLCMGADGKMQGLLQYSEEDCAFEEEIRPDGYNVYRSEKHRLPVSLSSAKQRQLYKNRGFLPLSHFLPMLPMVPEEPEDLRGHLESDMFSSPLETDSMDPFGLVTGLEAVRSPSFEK
row,effect of a mutation on the interaction,Variant
1,with no effect,D351H

# Variants of: B1
# Details: with fgfp1_human FGFBP1, Q14512
row,effect of a mutation on the interaction,Variant
1,with no effect,D351H

# Variants of: B1
# Details: with fgfr3_human FGFR3, P22607
row,effect of a mutation on the interaction,Variant
1,with no effect,D351H

# Variants of: B1
# Details: with fgfr4_human FGFR4, P22455
row,effect of a mutation on the interaction,Variant
1,with no effect,D351H

# Variants of: B1
# Details: with fumh_human FH
row,effect of a mutation on the interaction,Variant
1,with no effect,D351H

# Variants of: B1
# Details: with foxo1_human FOXO1, Q12778
row,effect of a mutation on the interaction,Variant
1,with no effect,D351H

# Variants of: B1
# Details: with foxo3_human FOXO3, O43524
# Sequence of foxo3_human FOXO3, O43524 (O43524 whole entry): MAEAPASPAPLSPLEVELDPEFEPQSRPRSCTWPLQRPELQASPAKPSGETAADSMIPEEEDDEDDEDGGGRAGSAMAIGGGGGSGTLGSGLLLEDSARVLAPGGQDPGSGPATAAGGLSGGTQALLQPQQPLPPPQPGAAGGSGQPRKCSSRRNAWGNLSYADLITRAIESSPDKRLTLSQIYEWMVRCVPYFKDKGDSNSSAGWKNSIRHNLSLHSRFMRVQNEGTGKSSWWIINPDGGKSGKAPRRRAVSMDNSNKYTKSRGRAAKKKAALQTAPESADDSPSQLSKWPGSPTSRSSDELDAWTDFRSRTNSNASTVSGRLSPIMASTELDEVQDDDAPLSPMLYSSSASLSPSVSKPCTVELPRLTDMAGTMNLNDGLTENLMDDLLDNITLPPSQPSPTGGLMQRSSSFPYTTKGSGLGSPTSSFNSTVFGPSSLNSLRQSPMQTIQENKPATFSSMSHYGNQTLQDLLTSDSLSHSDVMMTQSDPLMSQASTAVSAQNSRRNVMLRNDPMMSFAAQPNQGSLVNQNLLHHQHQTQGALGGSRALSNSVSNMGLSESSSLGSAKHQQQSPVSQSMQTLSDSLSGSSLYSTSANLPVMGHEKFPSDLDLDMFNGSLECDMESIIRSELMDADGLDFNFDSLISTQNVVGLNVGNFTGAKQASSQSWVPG
row,effect of a mutation on the interaction,Variant
1,with no effect,D351H

# Variants of: B1
# Details: with gbra6_human GABRA6, Q16445
row,effect of a mutation on the interaction,Variant
1,with no effect,D351H

# Variants of: B1
# Details: with gata2_human GATA2, P23769
# Sequence of gata2_human GATA2, P23769 (P23769 whole entry): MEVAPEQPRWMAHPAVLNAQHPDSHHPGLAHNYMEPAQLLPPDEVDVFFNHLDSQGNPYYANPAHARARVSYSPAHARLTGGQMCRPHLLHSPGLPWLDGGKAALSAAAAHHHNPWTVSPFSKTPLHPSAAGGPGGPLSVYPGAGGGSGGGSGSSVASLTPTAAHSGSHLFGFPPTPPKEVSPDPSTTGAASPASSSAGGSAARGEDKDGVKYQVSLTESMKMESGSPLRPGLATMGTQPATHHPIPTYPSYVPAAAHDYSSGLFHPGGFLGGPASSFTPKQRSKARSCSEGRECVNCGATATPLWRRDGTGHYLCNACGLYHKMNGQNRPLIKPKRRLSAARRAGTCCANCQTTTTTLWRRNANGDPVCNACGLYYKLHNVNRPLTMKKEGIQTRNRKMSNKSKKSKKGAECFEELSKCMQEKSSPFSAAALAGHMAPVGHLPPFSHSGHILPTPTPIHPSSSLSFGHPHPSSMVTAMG
row,effect of a mutation on the interaction,Variant
1,with no effect,D351H

# Variants of: B1
# Details: with gata3_human GATA3, P23771
# Sequence of gata3_human GATA3, P23771 (P23771 whole entry): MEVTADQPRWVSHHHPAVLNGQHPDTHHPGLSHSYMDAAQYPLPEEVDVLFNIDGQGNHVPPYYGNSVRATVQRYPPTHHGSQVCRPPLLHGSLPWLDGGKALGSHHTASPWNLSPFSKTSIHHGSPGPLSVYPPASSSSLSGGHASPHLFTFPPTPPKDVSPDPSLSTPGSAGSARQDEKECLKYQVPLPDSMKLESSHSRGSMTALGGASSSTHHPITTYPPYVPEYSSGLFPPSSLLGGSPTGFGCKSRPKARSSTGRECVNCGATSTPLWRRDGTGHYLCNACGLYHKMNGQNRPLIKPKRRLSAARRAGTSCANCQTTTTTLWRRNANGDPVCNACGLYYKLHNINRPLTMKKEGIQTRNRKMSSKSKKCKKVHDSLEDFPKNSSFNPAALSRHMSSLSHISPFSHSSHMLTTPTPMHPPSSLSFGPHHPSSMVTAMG
row,effect of a mutation on the interaction,Variant
1,with no effect,D351H

# Variants of: B1
# Details: with gna11_human GNA11, P29992
row,effect of a mutation on the interaction,Variant
1,with no effect,D351H

# Variants of: B1
# Details: with gna13_human GNA13, Q14344
row,effect of a mutation on the interaction,Variant
1,with no effect,D351H

# Variants of: B1
# Details: with gnaq_human GNAQ
row,effect of a mutation on the interaction,Variant
1,with no effect,D351H

# Variants of: B1
# Details: with grb7_human GRB7, Q14451
row,effect of a mutation on the interaction,Variant
1,with no effect,D351H

# Variants of: B1
# Details: with grm1_human GRM1, Q13255
row,effect of a mutation on the interaction,Variant
1,with no effect,D351H

# Variants of: B1
# Details: with grm3_human GRM3, Q14832
row,effect of a mutation on the interaction,Variant
1,with no effect,D351H

# Variants of: B1
# Details: with gsk3a_human GSK3A
row,effect of a mutation on the interaction,Variant
1,with no effect,D351H

# Variants of: B1
# Details: with hdac1_human HDAC1, Q13547
row,effect of a mutation on the interaction,Variant
1,with no effect,D351H

# Variants of: B1
# Details: with hdac3_human HDAC3, O15379
row,effect of a mutation on the interaction,Variant
1,with no effect,D351H

# Variants of: B1
# Details: with hgf_human HGF
row,effect of a mutation on the interaction,Variant
1,with no effect,D351H
